Numbering of substitutions follows the chain as printed.
T1: cynomolgus SIRPγ (XP_005568591) extracellular domain + His-tag (cynomolgus monkey, UniProt Q9P1W8 29-359 (human entry))
T1 construct: SPR analyte; also called Cyno SIRPγ XP_005568591; cynoSIRPγ; not shown: His-tag
T1 chain: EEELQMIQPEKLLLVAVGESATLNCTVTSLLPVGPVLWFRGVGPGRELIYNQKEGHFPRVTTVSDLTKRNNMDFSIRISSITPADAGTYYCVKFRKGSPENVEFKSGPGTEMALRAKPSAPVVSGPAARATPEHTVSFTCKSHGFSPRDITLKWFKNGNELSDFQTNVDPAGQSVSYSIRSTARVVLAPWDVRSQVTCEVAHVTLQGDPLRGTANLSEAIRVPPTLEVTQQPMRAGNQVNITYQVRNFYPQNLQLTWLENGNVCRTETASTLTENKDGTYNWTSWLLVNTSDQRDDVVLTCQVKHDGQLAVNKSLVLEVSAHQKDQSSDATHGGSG

T2: cynomolgus SIRPβ1 (XP_005568598) extracellular domain + His-tag (cynomolgus monkey)
T2 construct: SPR analyte; also called Cyno SIRPβ1 XP_005568598; cynoSIRPβ1; not shown: His-tag
T2 chain: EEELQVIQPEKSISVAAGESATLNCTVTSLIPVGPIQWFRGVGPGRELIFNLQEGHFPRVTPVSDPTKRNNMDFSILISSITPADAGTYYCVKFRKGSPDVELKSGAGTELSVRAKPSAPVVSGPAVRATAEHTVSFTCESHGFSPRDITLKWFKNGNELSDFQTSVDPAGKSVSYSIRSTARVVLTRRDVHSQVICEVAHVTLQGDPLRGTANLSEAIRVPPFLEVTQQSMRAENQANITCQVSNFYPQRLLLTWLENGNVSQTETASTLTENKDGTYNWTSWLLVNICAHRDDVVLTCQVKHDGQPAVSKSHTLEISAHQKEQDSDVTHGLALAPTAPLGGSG

T3: cynomolgus SIRPα (EGM_02252) extracellular domain + His-tag (cynomolgus monkey)
T3 construct: SPR analyte; also called CySIRPα EGM_02252; cynoSIRPα; not shown: His-tag
T3 chain: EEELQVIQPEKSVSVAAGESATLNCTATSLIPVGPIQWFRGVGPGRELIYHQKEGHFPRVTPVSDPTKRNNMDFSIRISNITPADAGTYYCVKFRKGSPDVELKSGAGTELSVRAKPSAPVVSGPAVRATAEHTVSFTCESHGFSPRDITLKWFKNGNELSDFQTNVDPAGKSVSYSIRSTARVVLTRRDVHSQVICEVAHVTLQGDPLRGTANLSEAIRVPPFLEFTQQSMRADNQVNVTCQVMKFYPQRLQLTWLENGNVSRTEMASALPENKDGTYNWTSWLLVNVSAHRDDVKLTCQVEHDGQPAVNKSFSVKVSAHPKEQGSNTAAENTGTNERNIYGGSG

T4: cynomolgus SIRPβ1v3 (XP_005568593) extracellular domain + His-tag (cynomolgus monkey)
T4 construct: SPR analyte; also called Cyno SIRPβ1v3 XP_005568593; cynoSIRPβ1v3; not shown: His-tag
T4 chain: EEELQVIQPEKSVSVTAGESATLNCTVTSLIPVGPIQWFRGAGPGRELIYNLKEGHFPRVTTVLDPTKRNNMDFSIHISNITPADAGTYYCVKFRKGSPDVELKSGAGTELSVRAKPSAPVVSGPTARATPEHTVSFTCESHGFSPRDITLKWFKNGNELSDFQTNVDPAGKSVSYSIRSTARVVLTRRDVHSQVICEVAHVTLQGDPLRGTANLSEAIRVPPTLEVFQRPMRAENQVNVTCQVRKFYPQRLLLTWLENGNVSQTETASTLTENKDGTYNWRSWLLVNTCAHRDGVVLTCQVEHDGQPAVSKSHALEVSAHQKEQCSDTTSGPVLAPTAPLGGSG

B1: Antibody E (antibody, human IgG1, kappa, L234A L235A)
heavy: not shown
light: DIVMTQSPLSLPVTPGEPASISCKSSQSLLYSNGYNYLDWYLQRPGQSPQLLIYLGSNRASGVPDRFSGSGSGTDFTLKISRVEAEDVGVFYCMQALQTPLTFGGGTKVEIKRTVAAPSVFIFPPSDEQLKSGTASVVCLLNNFYPREAKVQWKVDNALQSGNSQESVTEQDSKDSTYSLSSTLTLSKADYEKHKVYACEVTHQGLSSPVTKSFNRGEC
B2: Antibody E1 (antibody, human IgG1, kappa, L234A L235A, V domains shown)
VH: QVQLQESGPGLVRPSETLSLTCTVSGGSIRNYYWSWIRQPPGKGLEWIGFIYYNGRTFYNPSLKSRVTISLDMSINQFSLKMTSVTAADTAVYYCARVRAYSGIGLDGTDVWGQGTTVTVSS
VL: DIVMTQSPLSLPVTPGEPASISCKSSQSLLYSNGYAYLDWYLQRPGQSPQLLIYQGSNRASGVPDRFSGSGSGTDFTLKISRVEAEDVGVFYCMQALQTPLTFGGGTKVEIKR
B3: Antibody E3 (antibody, human IgG1, kappa, L234A L235A, V domains shown)
VH: B2 VH with I75K
VL: B2 VL
B4: Antibody E3 (antibody, human IgG1, kappa, L234A L235A, V domains shown)
VH: B2 VH with I75K
VL: B2 VL
B5: Antibody E10 (antibody, human IgG1, kappa, L234A L235A, V domains shown)
VH: B2 VH with M73T, I75K
VL: B2 VL with Q55L, F91Y
B6: Antibody E5 (antibody, human IgG1, kappa, L234A L235A, V domains shown)
VH: B2 VH with M73K, I75K
VL: B2 VL
B7: Antibody E2 (antibody, human IgG1, kappa, L234A L235A, V domains shown)
VH: B2 VH
VL: B2 VL with Q55L, F91Y
B8: Antibody E8 (antibody, human IgG1, kappa, L234A L235A, V domains shown)
VH: B2 VH with I48M, Y53D, I75M
VL: B2 VL
B9: Antibody E1 (antibody, human IgG1, kappa, L234A L235A, V domains shown)
VH: B2 VH
VL: B2 VL
B10: Antibody E16 (antibody, human IgG1, kappa, L234A L235A, V domains shown)
VH: B2 VH with M73T, I75K
VL: B2 VL with G34A, A36N, Q55L, F91Y
B11: Antibody E7 (antibody, human IgG1, kappa, L234A L235A, V domains shown)
VH: B2 VH with M73T, I75K
VL: B2 VL
B12: Antibody E6 (antibody, human IgG1, kappa, L234A L235A, V domains shown)
VH: B2 VH with M73K, I75K
VL: B2 VL with Q55L, F91Y
B13: Antibody E11 (antibody, human IgG1, kappa, L234A L235A, V domains shown)
VH: B2 VH with I48M, Y53D, I75M
VL: B2 VL with Q55L, F91Y
B14: Antibody E4 (antibody, human IgG1, kappa, L234A L235A, V domains shown)
VH: B2 VH with I75K
VL: B2 VL with Q55L, F91Y

Legend:
[1] = biological target: T5, Human SIRPαV1 (NP_542970.1), Extracellular Domain + His-Tag (human, UniProt P78324 31-373); test: SPR, antibody captured on Protein A/G, ECD-His analyte, 1:1 fit
T5 construct: also called huSIRPαV1; hSIRPαV1; not shown: His-Tag
T5 sequence (P78324 other isoform, or with tags, fused parts or gaps): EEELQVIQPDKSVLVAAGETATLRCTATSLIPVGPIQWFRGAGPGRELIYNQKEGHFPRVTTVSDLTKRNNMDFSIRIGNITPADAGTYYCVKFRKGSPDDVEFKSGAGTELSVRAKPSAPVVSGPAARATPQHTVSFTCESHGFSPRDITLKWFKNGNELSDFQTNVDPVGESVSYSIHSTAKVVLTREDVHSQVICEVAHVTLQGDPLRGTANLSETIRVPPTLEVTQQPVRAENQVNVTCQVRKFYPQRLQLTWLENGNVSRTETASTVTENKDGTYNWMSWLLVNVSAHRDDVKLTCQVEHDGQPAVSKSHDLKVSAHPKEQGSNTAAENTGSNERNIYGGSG
Method: (§1) The binding kinetics of anti-SIRPα antibodies to various SIRPα analytes are determined by surface plasmon resonance (SPR) using a Biacore 8K+(Cytiva). 1×HBS-EP+(Cytiva) is used as running buffer and for all the dilutions unless stated otherwise. The Series S CM5 sensorchip is activated with a 1:1 mixture of 0.1 M NHS (N-hydroxysuccinimide) and 0.4 M EDC (1-Ethyl-3-(3-dimethylaminopropyl) carbodiimide hydrochloride) for 420 seconds at a flow rate of 10 μl/min and immobilized with Protein A/G (Thermo Scientific, 10 μg/ml in 10 mM acetate pH 4.5) for 420 seconds at a flowrate of 10 μl/min resulting in approximately 3000 RU of Protein A/G on the surface. The sensorchip is then deactivated with 1 M ethanolamine HCl pH 8.5 for 420 seconds at a flowrate of 10 μl/min.
(§2) Antibodies (approximately 1 ug/ml) are captured on the Protein A/G surface for 60 seconds at a flowrate of 10 μl/min resulting in capture levels of approximately 240 RU. Dilutions of each SIRP protein (Extracellular Domain+His-Tag, with the concentrations as indicated) are injected as analytes over the captured antibody for 300 seconds of association at a flowrate of 30 μl/min, followed by a dissociation for 600 seconds.
(§3) The above procedures are used to measure binding properties of antibodies of the present disclosure. For each analyte used, the highest concentration was as indicated in Example 3 (see Table 36).

[2] = biological target: T6, Human SIRPαV2 (CAA71403.1), Extracellular Domain + His-Tag (human, UniProt P78324 31-373); test: as above
T6 construct: also called huSIRPαV2; hSIRPαV2; not shown: His-Tag
T6 sequence (P78324 other isoform, or with tags, fused parts or gaps): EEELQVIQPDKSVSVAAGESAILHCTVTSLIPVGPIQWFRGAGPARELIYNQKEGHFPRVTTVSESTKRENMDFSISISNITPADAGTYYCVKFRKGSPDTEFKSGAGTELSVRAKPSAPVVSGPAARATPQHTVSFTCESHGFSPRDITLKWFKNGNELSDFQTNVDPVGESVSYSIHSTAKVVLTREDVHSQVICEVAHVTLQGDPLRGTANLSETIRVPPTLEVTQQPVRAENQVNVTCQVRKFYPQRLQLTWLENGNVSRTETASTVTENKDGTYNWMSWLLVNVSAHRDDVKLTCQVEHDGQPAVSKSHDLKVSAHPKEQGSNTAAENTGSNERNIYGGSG
Method: as §1, §2, §3

[3] = biological target: T1, cynomolgus SIRPγ (XP_005568591) …; test: SPR
Method: (§4) The binding affinity of anti-SIRPα antibodies to the various SIRPα analytes is determined by surface plasmon resonance (SPR) using a ProteOn XPR36 (Bio-Rad). The running buffer for this experiment and all dilutions (except where stated) are done in 1×HBS-EP+. […] The sensorchip is deactivated with 1M ethanolamine HCl for 420 sec at a flowrate of 10 μl/min.
(§5) The analyte is injected over the captured antibody for 300 sec at a flowrate of 30 μl/min. The dissociation is done for 600 sec. Two-fold serial dilutions of each SIRP protein (Extracellular Domain+His-Tag) are injected as analyte with the highest concentrations indicated in table 36 below.

[4] = biological target: T2, cynomolgus SIRPβ1 (XP_005568598) …; test: SPR
Method: as §4, §5

[5] = biological target: T3, cynomolgus SIRPα (EGM_02252) …; test: SPR
Method: as §4, §5

[6] = biological target: T4, cynomolgus SIRPβ1v3 (XP_005568593) …; test: SPR, antibody captured, ECD-His analyte
Method: as §4, §5

[7] = biological target: T7, human SIRPαV2 extracellular domain + His-tag (CAA71403.1) (human, UniProt P78324 31-373); test: SPR, Ab captured, ECD-His analyte
T7 construct: also called hSIRPαV2; HuSIRPαV2
Method: as §4, §5

[8] = biological target: T8, human SIRPαV1 extracellular domain + His-tag (NP_542970.1) (human, UniProt P78324 31-373); test: SPR, Ab captured, ECD-His analyte
T8 construct: also called hSIRPαV1; HuSIRPαV1
Method: as §4, §5

[9] = biological target: T9, human SIRPγ extracellular domain + His-tag (NP_061026.2) (human, UniProt Q9P1W8 29-360); test: SPR, Ab captured, ECD-His analyte
T9 construct: also called hSIRPγ; HuSIRPγ
T9 sequence (Q9P1W8 29-360): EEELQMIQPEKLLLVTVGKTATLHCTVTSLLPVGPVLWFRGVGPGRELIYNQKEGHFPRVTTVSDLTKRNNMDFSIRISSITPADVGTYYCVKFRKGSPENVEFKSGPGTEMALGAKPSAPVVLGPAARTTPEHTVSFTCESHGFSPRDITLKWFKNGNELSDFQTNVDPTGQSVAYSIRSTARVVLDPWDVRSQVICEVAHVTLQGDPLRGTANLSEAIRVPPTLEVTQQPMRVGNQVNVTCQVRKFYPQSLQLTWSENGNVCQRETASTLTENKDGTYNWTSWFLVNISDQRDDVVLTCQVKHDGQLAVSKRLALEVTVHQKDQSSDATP
Method: as §4, §5

| Binder | Kd [1] [nM] | Kd [2] [nM] | binding result [3] | binding result [4] | binding result [5] | Kd [6] [nM] | Kd [7] [nM] | Kd [8] [nM] | binding result [9] |
| --- | --- | --- | --- | --- | --- | --- | --- | --- | --- |
| B1 | 0.43 | 0.33 | – | – | – | – | – | – | – |
| B2 | – | – | no binding (tested: 1000 nM) | no binding (tested: 1000 nM) | no binding (tested: 1000 nM) | 10.8 | – | – | – |
| B3 | – | – | no binding (tested: 1000 nM) | no binding (tested: 1000 nM) | no binding (tested: 1000 nM) | 10.7 | – | – | – |
| B4 | – | – | – | – | – | – | 0.775 | 0.964 | no binding (tested: 1000 nM) |
| B5 | – | – | – | – | – | – | 1.2 | 1.23 | no binding (tested: 1000 nM) |
| B6 | – | – | no binding (tested: 1000 nM) | no binding (tested: 1000 nM) | no binding (tested: 1000 nM) | 22.6 | – | – | – |
| B7 | – | – | no binding (tested: 1000 nM) | no binding (tested: 1000 nM) | no binding (tested: 1000 nM) | 12.4 | – | – | – |
| B8 | – | – | no binding (tested: 1000 nM) | no binding (tested: 1000 nM) | no binding (tested: 1000 nM) | 10.8 | – | – | – |
| B9 | – | – | – | – | – | – | 0.63 | 0.723 | no binding (tested: 1000 nM) |
| B10 | – | – | – | – | – | – | 1.93 | 2.15 | no binding (tested: 1000 nM) |
| B11 | – | – | no binding (tested: 1000 nM) | no binding (tested: 1000 nM) | no binding (tested: 1000 nM) | 13.1 | – | – | – |
| B12 | – | – | no binding (tested: 1000 nM) | no binding (tested: 1000 nM) | no binding (tested: 1000 nM) | 23.9 | – | – | – |
| B13 | – | – | – | – | – | – | 0.568 | 1.41 | no binding (tested: 1000 nM) |
| B14 | – | – | – | – | – | – | 0.824 | 0.988 | no binding (tested: 1000 nM) |

— patent publication US20230012273A1 (Boehringer Ingelheim, published 2023)
